Experimental data taken from PMC3329130 (Biochemistry, 2012).
One block for each molecule: values may come before it.

Experiments:
[1] = target: T1, Sac1 (phosphatase domain of yeast Sac1, residues 1-511) (Saccharomyces cerevisiae, UniProt P32368); assay: malachite green phosphate release, PI; assay type: biochemical; conditions: fixed PI(4)P, pH 6.8, room temperature; allosteric activator
T1 sequence (P32368 1-511): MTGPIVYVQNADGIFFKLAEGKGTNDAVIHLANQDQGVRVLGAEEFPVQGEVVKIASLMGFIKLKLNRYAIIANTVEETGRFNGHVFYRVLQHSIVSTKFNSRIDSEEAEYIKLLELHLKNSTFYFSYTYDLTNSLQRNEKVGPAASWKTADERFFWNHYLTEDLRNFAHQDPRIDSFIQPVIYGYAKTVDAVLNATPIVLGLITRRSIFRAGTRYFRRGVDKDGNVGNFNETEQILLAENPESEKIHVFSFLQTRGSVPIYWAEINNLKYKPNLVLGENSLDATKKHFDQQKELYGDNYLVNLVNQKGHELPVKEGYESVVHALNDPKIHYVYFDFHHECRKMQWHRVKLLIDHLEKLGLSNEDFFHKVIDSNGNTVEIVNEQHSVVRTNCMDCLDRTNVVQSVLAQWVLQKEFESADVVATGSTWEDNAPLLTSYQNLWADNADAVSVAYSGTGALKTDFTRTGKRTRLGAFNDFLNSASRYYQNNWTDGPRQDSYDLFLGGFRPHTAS

[2] = target: yeast Sac1 phosphatase domain (amino acids 1-511) (yeast) (UniProt P32368); assay: AUC
[3] = substrate: CCCCCCCC(=O)OC[C@H](COP(=O)(O)O[C@H]1[C@H](O)[C@@H](O)[C@H](OP(=O)(O)O)[C@@H](O)[C@H]1O)OC(=O)CCCCCCC; assay: purified protein; conditions: no activator; sigmoidal, Hill coefficient 3.6 ± 0.3; buffer as for wild type

Molecule: CCCCCCCC(=O)OC[C@H](COP(=O)(O)OC[C@H](N)C(=O)O)OC(=O)CCCCCCC [diC8 PS]
- activation [1]: Sac1 is strongly activated by phosphatidylserine (PS)

- percent of the protein in the dimeric form [2]: 20%
- stoichiometry N [2]: 2
Molecule: yeast Sac1 phosphatase domain (amino acids 1-511) (from UniProt P32368 1-511) (domain or fragment)

B1: Sac1 (phosphatase domain of yeast Sac1, residues 1-511) (Saccharomyces cerevisiae S288C; R207Q) (protein)
chain: MTGPIVYVQNADGIFFKLAEGKGTNDAVIHLANQDQGVRVLGAEEFPVQGEVVKIASLMGFIKLKLNRYAIIANTVEETGRFNGHVFYRVLQHSIVSTKFNSRIDSEEAEYIKLLELHLKNSTFYFSYTYDLTNSLQRNEKVGPAASWKTADERFFWNHYLTEDLRNFAHQDPRIDSFIQPVIYGYAKTVDAVLNATPIVLGLITRQSIFRAGTRYFRRGVDKDGNVGNFNETEQILLAENPESEKIHVFSFLQTRGSVPIYWAEINNLKYKPNLVLGENSLDATKKHFDQQKELYGDNYLVNLVNQKGHELPVKEGYESVVHALNDPKIHYVYFDFHHECRKMQWHRVKLLIDHLEKLGLSNEDFFHKVIDSNGNTVEIVNEQHSVVRTNCMDCLDRTNVVQSVLAQWVLQKEFESADVVATGSTWEDNAPLLTSYQNLWADNADAVSVAYSGTGALKTDFTRTGKRTRLGAFNDFLNSASRYYQNNWTDGPRQDSYDLFLGGFRPHTAS
- K0.5 [3]: 46 ± 5 µM
